Values joined by “and” are separate entries in the source; they are usually repeats but may differ in a detail not shown here. Equal entries are not always repeated.
Conditions: Homo sapiens, pH 7, 25 °C, GdnHCl, CD, sodium cacodylate 50 mM, NaCl 50 mM, whole UniProt chain shown

B1: Alpha-lactalbumin wild type, P00709 (protein)
chain: MRFFVPLFLVGILFPAILAKQFTKCELSQLLKDIDGYGGIALPELICTMFHTSGYDTQAIVENNESTEYGLFQISNKLWCKSSQVPQSRNICDISCDKFLDDDITDDIMCAKKILDIKGIDYWLAHKALCTEKLEQWLCEKL
For B1, the denaturant m value (transition: 3) was 2.2 kcal/mol/M and 0.77 kcal/mol/M and 0.75 kcal/mol/M, the denaturant m value was 2.9 kcal/mol/M and 2.4 kcal/mol/M and 4.4 kcal/mol/M and the unfolding free energy was 6.9 kcal/mol and 7.2 kcal/mol and 13.8 kcal/mol.

Source: FireProtDB (doi:10.1021/bi001735j)
